This assay deals with Rad50 (Homo sapiens (Human)) (UniProt Q92878). In words: SILAC LC-MS/MS of anti-Flag immunoprecipitate, heavy (EVI1-Flag) over light (Flag control).
UniProt Q92878, sequence (Q92878 whole entry): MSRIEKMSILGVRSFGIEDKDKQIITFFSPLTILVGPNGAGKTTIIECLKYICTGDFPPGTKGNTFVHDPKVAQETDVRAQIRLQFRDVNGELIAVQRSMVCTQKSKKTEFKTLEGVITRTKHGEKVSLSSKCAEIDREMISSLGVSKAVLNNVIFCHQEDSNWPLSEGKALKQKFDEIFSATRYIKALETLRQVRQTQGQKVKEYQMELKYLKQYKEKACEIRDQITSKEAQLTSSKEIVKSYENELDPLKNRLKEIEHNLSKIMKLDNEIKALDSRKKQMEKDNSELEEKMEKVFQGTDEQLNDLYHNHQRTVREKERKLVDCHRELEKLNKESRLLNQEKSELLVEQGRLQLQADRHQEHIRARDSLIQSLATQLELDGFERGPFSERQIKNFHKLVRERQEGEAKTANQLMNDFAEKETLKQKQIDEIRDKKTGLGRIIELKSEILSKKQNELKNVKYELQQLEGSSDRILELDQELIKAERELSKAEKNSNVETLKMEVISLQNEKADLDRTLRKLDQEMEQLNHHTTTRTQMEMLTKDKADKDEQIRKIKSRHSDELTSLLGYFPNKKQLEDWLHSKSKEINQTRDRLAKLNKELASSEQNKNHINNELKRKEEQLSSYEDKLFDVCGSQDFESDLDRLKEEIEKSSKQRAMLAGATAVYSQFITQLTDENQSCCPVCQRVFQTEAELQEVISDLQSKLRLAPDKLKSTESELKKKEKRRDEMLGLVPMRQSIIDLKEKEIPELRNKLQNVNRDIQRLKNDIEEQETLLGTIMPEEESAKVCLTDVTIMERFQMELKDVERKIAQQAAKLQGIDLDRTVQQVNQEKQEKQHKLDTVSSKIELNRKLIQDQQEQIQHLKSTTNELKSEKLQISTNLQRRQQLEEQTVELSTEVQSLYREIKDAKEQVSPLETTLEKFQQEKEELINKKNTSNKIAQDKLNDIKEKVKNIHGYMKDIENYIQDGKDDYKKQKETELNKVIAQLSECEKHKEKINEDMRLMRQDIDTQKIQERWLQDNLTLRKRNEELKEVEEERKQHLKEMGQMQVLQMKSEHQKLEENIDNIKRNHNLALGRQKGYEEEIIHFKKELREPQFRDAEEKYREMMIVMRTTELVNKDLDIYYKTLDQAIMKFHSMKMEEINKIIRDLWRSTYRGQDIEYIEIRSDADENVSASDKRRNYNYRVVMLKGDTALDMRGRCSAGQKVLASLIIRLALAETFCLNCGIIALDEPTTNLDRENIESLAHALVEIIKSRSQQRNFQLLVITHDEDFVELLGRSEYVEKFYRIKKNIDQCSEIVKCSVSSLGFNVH

In the case of “EVI1-Flag construct (Evi1 protein with Flag tag, expressed in SKOV3 cells) (from UniProt Q03112 1-1051)”, the Evi1 enrichment (H/L ratio) was 7.11 to 47.8 H/L ratio.

For the origin of these results see US20170322217A1.
